Where no end group is shown, it is not given here.
Key:
mCherry-KPNB1 = biological target: T1, mCherry-KPNB1 (Homo sapiens (Human), UniProt Q14974 1-876); test: co-IP with mCherry-KPNB1, western blot
T1 construct: mCherry was cloned into GFP-KPNB1; also called mCherry-tagged KPNB1; not shown: mCherry tag (mCherry-C1, Clontech)
Description: FIG. 30B) Lysates from HEK293T cells co-expressing mCherry-KPNB1 with GFP, GFP-TDP-CTF or GFP-TDP-CTF C-terminal deletion constructs were subjected to immunoprecipitation with RFP-Trap magnetic beads. Whole cell lysates (input) and immunoprecipitates (IP) were subjected to western blot analysis using indicated antibodies. Deletion of amino-acids 230-240 in TDP-CTF reduced its binding to KPNB1. FIG. 30C) Lysates from HEK293T cells co-expressing mCherry-KPNB1 with GFP, GFP-TDP-CTF or GFP-TDP-CTF N-terminal deletion constructs were subjected to immunoprecipitation with RFP-Trap magnetic beads. Whole cell lysates (input) and immunoprecipitates (IP) were subjected to western blot analysis using indicated antibodies. Deletion of amino-acids 230-240 in TDP-CTF reduces its binding to KPNB1. TDP-PrLD weakly interacts with KPNB1. FIG. 30D) (Left) Lysates from HEK293T cells co-expressing mCherry-KPNB1 with GFP, GFP-TDP-CTF^WT or GFP-TDP-CTF^Δ230-240 were subjected to immunoprecipitation with RFP-Trap magnetic beads. […] (Right) Quantification of relative GFP levels in IP normalized by GFP levels in input confirm that GFP-TDP-CTF^Δ230-240 interacts less with mCherry-KPNB1. […] FIG. 30F) Western blot analysis and quantification of insoluble GFP-tagged TDP-CTF^WT or TDP-CTF^Δ230-240 in HEK293T cells expressing mCherry or mCherry-KPNB1. […]

endogenous Nup62 [1] = biological target: T2, endogenous Nup62 (human, UniProt P37198 2-522); test: co-IP, western blot
T2 construct: Detected with anti-Nup62
T2 sequence (looked up): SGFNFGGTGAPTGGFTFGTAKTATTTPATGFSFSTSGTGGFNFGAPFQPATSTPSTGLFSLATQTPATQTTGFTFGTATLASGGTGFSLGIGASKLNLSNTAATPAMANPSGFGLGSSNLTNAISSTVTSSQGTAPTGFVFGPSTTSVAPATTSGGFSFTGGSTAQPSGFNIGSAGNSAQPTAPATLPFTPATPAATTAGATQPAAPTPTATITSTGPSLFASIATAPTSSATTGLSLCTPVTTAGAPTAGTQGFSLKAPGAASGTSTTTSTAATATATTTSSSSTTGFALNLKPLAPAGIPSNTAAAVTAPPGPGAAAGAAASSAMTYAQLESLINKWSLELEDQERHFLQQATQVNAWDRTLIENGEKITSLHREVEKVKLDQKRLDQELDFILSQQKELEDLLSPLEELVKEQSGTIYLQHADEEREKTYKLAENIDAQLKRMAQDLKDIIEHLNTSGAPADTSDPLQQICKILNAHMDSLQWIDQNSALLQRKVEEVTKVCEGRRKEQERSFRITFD
Description: RanGTP and importin-α interact with H1-8 and H8-19, respectively. FG-Nups bind to two regions of KPNB1, H5-7 and H14-16. FIG. 21B) Lysates from HEK293T cells expressing GFP, GFP-KPNB1 full-length (FL), N-terminal fragments of KPNB1 (H1-9 . . . H1) or the C-terminal fragment of KPNB1 (H10-19) were subjected to immunoprecipitation with GFP-Trap magnetic beads. Whole cell lysates (input) and immunoprecipitates (IP) were subjected to western blot analysis using indicated antibodies. KPNB1 H1-8, the smallest fully active KPNB1 fragment in reducing TDP-43 aggregation, strongly interacts with FG-Nups and Ran, and weakly with importin-al in comparison with full-length KPNB1. FIG. 21C) (Top) Schematic domain structure of KPNB1 H1-8^mNIS harboring four missense mutations (1178A, F217A, Y255A, I263R) in the nucleoporin-interacting site (NIS). (Bottom) Lysates from HEK293T cells expressing GFP, GFP-KPNB1 H1-8^WT or H1-8^mNIS were subjected to immunoprecipitation with GFP-Trap magnetic beads. Whole cell lysates (input) and immunoprecipitates (IP) were subjected to western blot analysis using indicated antibodies. […] Hoechst staining was used to outline nuclei. Scale bar: 5 μm. […] FIG. 21G) Quantification of the percentage of cells with cytoplasmic GR aggregates positive for endogenous TDP-43.

Untagged KPNB1 = biological target: T3, Untagged KPNB1 (Homo sapiens (Human), UniProt Q14974 1-876); test: GFP-Trap IP from HEK293T lysates, western blot
T3 construct: KPNB1 amplified by PCR and cloned into pEGFP-C1 lacking the GFP tag; also called Wildtype KPNB1
Description: (§1) FIGS. 29A-29C: Untagged KPNB1 interacts with both the RRM2 and PrLD of TDP-CTF. FIG. 29A) (Left) Lysates from HEK293T cells expressing GFP alone, or untagged KPNB1 with GFP, GFP-TDP-CTF or GFP-TDP43^WT were subjected to immunoprecipitation with GFP-Trap magnetic beads. Whole cell lysates (input) and immunoprecipitates (IP) were subjected to western blot analysis using indicated antibodies. (Right) Quantification of relative KPNB1 levels in IP normalized by KPNB1 levels in input. Statistical analysis was performed using one-way ANOVA and Bonferroni's post hoc test (**p<0.01, ***p<0.001, n=3). […] FIG. 29C) (Left) Lysates from HEK293T cells expressing GFP alone, or untagged KPNB1 with GFP, GFP-TDP-CTF, GFP-TDP-CTF^non-PrLD or GFP-TDP-PrLD were subjected to immunoprecipitation with GFP-Trap magnetic beads. Whole cell lysates (input) and immunoprecipitates (IP) were subjected to western blot analysis using indicated antibodies. (Right) Quantification of relative KPNB1 levels in IP normalized by KPNB1 levels in input. Statistical analysis was performed using one-way ANOVA and Bonferroni's post hoc test (***p<0.001, n=3).
(§2) FIGS. 31A-31C: The PrLD of TDP-43 interacts with FG-Nups and KPNB1. FIG. 31A) Immunofluorescence (IF) of HEK293T cells expressing GFP or GFP-TDP-PrLD and stained for endogenous Nup98 and Nup62. TDP-PrLD forms small cytoplasmic foci positive for Nup62. FIG. 31B) IF of HEK293T cells expressing GFP or GFP-TDP-PrLD and stained for endogenous KPNB1. KPNB1 colocalizes with TDP-PrLD foci in the cytoplasm. Hoechst staining was used to outline nuclei. Scale bar: 5 μm. FIG. 31C) Lysates from HEK293T cells expressing GFP or GFP-TDP-PrLD were subjected to immunoprecipitation with GFP-Trap magnetic beads. Whole cell lysates (input) and immunoprecipitates (IP) were subjected to western blot analysis using indicated antibodies. The PrLD of TDP-43 interacts with Nup62, Nup98 and KPNB1, but not with Ran.
(§3) HEK293T cells were seeded in 6-well plates and transfected for 48 hours. Cells were then lysed in IP Lysis buffer (Fisher) supplemented with a protease inhibitor cocktail (Roche), and were centrifuged at 15000 rpm for 20 minutes at 4° C. A small aliquot of the recovered supernatant was set aside (input).

endogenous Ran = endogenous Ran (human, UniProt P62826 2-216); test: GFP-Trap IP from HEK293T lysates, western blot
Description: as §1, §2, §3

endogenous Nup98 = biological target: T4, endogenous Nup98 (human, UniProt P52948 1-880); test: GFP-Trap IP from HEK293T lysates, western blot
T4 sequence (looked up): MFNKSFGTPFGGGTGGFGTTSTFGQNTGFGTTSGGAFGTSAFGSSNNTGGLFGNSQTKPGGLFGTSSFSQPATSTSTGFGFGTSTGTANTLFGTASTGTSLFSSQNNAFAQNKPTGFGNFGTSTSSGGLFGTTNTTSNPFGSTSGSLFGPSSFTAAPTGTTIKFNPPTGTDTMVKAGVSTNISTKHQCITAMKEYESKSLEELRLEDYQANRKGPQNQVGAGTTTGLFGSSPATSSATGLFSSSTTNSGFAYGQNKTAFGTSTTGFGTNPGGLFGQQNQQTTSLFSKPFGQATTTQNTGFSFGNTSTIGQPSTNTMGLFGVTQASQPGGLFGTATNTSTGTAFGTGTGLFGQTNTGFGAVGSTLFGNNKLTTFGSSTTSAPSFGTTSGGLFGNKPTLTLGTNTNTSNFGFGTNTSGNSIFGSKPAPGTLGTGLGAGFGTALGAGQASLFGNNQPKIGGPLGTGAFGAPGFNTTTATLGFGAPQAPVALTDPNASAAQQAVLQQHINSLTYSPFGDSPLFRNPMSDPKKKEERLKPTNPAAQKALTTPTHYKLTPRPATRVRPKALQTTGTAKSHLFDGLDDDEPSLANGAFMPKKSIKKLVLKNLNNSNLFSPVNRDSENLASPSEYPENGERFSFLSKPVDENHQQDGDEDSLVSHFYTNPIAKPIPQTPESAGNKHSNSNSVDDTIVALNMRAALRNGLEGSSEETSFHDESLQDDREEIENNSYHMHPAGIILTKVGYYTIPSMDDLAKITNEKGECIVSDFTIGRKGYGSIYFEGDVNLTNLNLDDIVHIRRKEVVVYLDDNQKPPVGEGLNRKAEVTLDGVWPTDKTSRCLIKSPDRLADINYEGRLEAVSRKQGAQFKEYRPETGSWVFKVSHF
Description: as §1, §2, §3

endogenous Nup62 [2] = biological target: T2, endogenous Nup62; test: co-localisation by immunofluorescence in HEK293T cells (not a direct binding assay)
Description: as §2

endogenous KPNB1 = biological target: T5, endogenous KPNB1 (human, UniProt Q14974 1-876); test: as above
T5 construct: Endogenous protein detected with anti-KPNB1
Description: as §2

T1 sequence (Q14974 other isoform, or with tags, fused parts or gaps): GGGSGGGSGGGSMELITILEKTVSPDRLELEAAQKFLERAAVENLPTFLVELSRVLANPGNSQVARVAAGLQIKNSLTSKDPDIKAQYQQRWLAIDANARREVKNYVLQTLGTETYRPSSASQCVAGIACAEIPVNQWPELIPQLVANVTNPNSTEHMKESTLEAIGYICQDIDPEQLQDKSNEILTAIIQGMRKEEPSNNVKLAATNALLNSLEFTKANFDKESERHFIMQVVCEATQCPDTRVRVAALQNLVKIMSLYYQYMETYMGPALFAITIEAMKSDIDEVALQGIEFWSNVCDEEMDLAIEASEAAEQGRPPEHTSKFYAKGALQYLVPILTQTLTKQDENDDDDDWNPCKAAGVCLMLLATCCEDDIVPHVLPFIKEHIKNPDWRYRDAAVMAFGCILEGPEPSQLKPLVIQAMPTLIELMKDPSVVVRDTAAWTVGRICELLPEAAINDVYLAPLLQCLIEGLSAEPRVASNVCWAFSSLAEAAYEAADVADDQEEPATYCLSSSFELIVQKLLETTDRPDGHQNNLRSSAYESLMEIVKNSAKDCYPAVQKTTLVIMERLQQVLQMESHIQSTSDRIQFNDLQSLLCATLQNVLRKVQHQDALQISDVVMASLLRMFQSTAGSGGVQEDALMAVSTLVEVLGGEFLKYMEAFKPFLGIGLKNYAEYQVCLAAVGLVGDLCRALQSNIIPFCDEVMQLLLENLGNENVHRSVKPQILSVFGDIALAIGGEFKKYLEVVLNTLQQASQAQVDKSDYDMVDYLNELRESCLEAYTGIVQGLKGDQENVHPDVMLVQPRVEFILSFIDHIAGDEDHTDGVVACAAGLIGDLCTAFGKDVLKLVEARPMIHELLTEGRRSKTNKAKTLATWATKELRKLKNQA
T5 sequence (Q14974 whole entry): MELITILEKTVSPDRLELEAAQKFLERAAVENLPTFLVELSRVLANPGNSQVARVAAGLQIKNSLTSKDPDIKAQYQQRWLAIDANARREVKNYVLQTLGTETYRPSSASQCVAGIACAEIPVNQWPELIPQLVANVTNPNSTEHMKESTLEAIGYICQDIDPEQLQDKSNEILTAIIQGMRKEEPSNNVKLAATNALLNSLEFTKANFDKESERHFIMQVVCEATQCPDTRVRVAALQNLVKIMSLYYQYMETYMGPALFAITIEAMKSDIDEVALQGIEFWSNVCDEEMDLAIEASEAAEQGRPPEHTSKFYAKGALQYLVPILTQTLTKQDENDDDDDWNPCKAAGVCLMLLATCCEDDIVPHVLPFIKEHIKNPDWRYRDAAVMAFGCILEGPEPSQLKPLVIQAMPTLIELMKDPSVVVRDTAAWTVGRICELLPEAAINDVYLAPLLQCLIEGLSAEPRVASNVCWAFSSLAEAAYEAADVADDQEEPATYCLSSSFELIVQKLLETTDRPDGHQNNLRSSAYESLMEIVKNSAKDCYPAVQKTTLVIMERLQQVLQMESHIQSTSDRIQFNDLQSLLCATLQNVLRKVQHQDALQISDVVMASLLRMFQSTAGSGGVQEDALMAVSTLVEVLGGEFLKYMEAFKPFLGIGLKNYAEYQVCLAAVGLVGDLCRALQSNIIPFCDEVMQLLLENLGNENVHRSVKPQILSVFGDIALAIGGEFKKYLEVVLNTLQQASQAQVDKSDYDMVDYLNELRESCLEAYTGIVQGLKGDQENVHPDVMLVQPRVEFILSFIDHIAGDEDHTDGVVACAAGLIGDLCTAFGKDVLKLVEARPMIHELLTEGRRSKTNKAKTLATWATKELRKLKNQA
T3 sequence (Q14974 whole entry): as above

B1: GFP-TDP-CTF 208-239 (other, human)
chain: {GFP}-GGGSGGGSGGGSREFFSQYGDVMDVFIPKPFRAFAFVTFADDQI
modifications: also: GFP tag fused N-terminally, not in chain, (GGGS)3 linker in chain
notes: not shown: GFP/EGFP tag (pEGFP-C1, Clontech)
mCherry-KPNB1
  binding result: binds

B2: GFP-KPNB1 H1-8^mNIS (receptor)
chain: GGGSGGGSGGGSMELITILEKTVSPDRLELEAAQKFLERAAVENLPTFLVELSRVLANPGNSQVARVAAGLQIKNSLTSKDPDIKAQYQQRWLAIDANARREVKNYVLQTLGTETYRPSSASQCVAGIACAEIPVNQWPELIPQLVANVTNPNSTEHMKESTLEAIGYICQDIDPEQLQDKSNEILTAIAQGMRKEEPSNNVKLAATNALLNSLEFTKANFDKESERHAIMQVVCEATQCPDTRVRVAALQNLVKIMSLYYQYMETAMGPALFARTIEAMKSDIDEVALQGIEFWSNVCDEEMDLAIEASEAAEQGRPPEHTSKFYAKGALQYLVPILTQTLTKQDENDDDDDWNPCKAAGVCLMLLATCCED
notes: also called KPNB1-mNIS; not shown: GFP/EGFP tag (pEGFP-C1, Clontech)
Endogenous Nup62 [1]
  binding result: no binding

B3: GFP-TDP-PrLD (other, human)
chain: GGGSGGGSGGGSRFGGNPGGFGNQGGFGNSRGGGAGLGNNQGSNMGGGMNFGAFSINPAMMAAAQAALQSSWGMMGMLASQQNQSGPSGNNQNQGNMQREPNQAFGSGNNSYSGSNSGAAIGWGSASNAGSGSGFNGGFGSSMDSKSSGWGM
notes: also called GFP-TDP-43 PrLD; TDP-PrLD (aa275-414); not shown: GFP/EGFP tag (pEGFP-C1, Clontech)
Untagged KPNB1
  binding result: binds
Endogenous Ran
  binding result: no binding
Endogenous Nup98
  binding result: binds
Endogenous Nup62 [2]
  binding result: binds
Endogenous KPNB1
  binding result: binds

Source: patent US20240226230A1 (MAYO FOUNDATION FOR MEDICAL EDUCATION AND RESEARCH, published 2024)
